Measurements as given in paper PMC5035230 (Biochimica et biophysica acta, 2016).
Substitutions are numbered along the chain they refer to. Names may count otherwise.

B1: P453L-hE3 (pathogenic variant of human dihydrolipoamide dehydrogenase) (enzyme, UniProt P09622 36-509, looked up)
chain: ADQPIDADVTVIGSGPGGYVAAIKAAQLGFKTVCIEKNETLGGTCLNVGCIPSKALLNNSHYYHMAHGKDFASRGIEMSEVRLNLDKMMEQKSTAVKALTGGIAHLFKQNKVVHVNGYGKITGKNQVTATKADGGTQVIDTKNILIATGSEVTPFPGITIDEDTIVSSTGALSLKKVPEKMVVIGAGVIGVELGSVWQRLGADVTAVEFLGHVGGVGIDMEISKNFQRILQKQGFKFKLNTKVTGATKKSDGKIDVSIEAASGGKAEVITCDVLLVCIGRRPFTKNLGLEELGIELDPRGRIPVNTRFQTKIPNIYAIGDVVAGPMLAHKAEDEGIICVEGMAGGAVHIDYNCVPSVIYTHPEVAWVGKSEEQLKEEGIEYKVGKFPFAANSRAKTNADTDGMVKILGQKSTDRVLGAHILGPGAGEMVNEAALALEYGASCEDIARVCHAHLTLSEAFREANLAASFGKSINF
B2: R460G-hE3 (pathogenic variant of human dihydrolipoamide dehydrogenase) (enzyme, UniProt P09622 36-509, looked up)
chain: B1 chain with L453P, R460G
B3: I358T-hE3 (pathogenic variant of human dihydrolipoamide dehydrogenase) (enzyme, UniProt P09622 36-509, looked up)
chain: B1 chain with I358T, L453P
B4: I445M-hE3 (pathogenic variant of human dihydrolipoamide dehydrogenase) (enzyme, UniProt P09622 36-509, looked up)
chain: B1 chain with I445M, L453P
B5: E340K-hE3 (pathogenic variant of human dihydrolipoamide dehydrogenase) (enzyme, UniProt P09622 36-509, looked up)
chain: B1 chain with E340K, L453P
B6: G194C-hE3 (pathogenic variant of human dihydrolipoamide dehydrogenase) (enzyme, UniProt P09622 36-509, looked up)
chain: B1 chain with G194C, L453P
B7: R447G-hE3 (pathogenic variant of human dihydrolipoamide dehydrogenase) (enzyme, UniProt P09622 36-509, looked up)
chain: B1 chain with R447G, L453P
B8: I318T-hE3 (pathogenic variant of human dihydrolipoamide dehydrogenase) (enzyme, UniProt P09622 36-509, looked up)
chain: B1 chain with I318T, L453P
B9: K37E-hE3 (pathogenic variant of human dihydrolipoamide dehydrogenase) (enzyme, UniProt P09622 36-509, looked up)
chain: B1 chain with K37E, L453P
B10: D444V-hE3 (pathogenic variant of human dihydrolipoamide dehydrogenase) (enzyme, UniProt P09622 36-509, looked up)
chain: B1 chain with D444V, L453P

Target: the molecule itself
Assay: HDX-MS

Binding result, binds:
B1
B2
B3
B4
B5
B6
B7
B8
B9
B10
